Results: patent publication US20250381223A1 (UTC THERAPEUTICS SHANGHAI, published 2025)
Residue numbers refer to the chain shown, from its start.

B1: anti-mesothelin scFv-M7 (scFv)
scFv: DIRLTQSPSSLSASLGDRVTITCRASQAISSALAWYQQKPGKAPRLLIYDASTLESGVPSRFSGSGSGTDFTLTISSLQPEDFATYYCQQADSFPLTFGGGTKLEIKGGGGSGGGGSGGGGSQVQLVQSGAEVKKSGESLKISCKGSGYGFGAYWIAWVRQMPGKGLEWMGIIYPGDSRVIYSPYFQGQVTISADKSISTAYLQWSSLKASDTAMYYCARFGGPKFATNWFDIWGQGTTVTVSS
notes: On mRNA-electroporated T cells as CAR
B2: anti-mesothelin scFv-M8 (scFv)
scFv: DIQLTQSPSSLSASVGDRVTITCRASQSISSSLNWYQQKPGKAPKLLIYAASSLQSGVPSRFSGSGSGTDFTLTISSLQPEDFATYSCQQSYSTPLTFGGGTKVEIKGGGGSGGGGSGGGGSQVHLVESGGGVVQPGRSLRVSCAASGFTFSGYAMYWVRQAPGKGLEYVSAITTNGGSTNYADSVKGRFTISRDNSKNTLYLQMSSLRAGDTAVYYCARGAPGYRGYYMDVWGKGTTVTVSS
notes: as for B1
B3: anti-mesothelin scFv-M13 (scFv)
scFv: AIRMTQSPSSLSASVGDRVTITCRASQGISNSLAWYQQKPGKAPKLLLYAASRLESGVPSRFSGSGSGTDYTLTISSLQPEDFATYYCQQYYSTPFTFGPGTKLEIKGGGGSGGGGSGGGGSQVQLVQSGAEVKKPGSSVKVSCKTSADTFSANTINWVRQAPGHGLEWMGRIIPSLNIRDYAQEFQGRVTFTADESTNTVYMQLTSLRSEDTAVYYCARDPGSTWSPNQFFPHWGQGTLVTVSS
notes: as for B1
B4: anti-mesothelin scFv-M6 (scFv)
scFv: EIVMTQSPATLSLSPGERATLSCRASQSIGNSLAWYQQKPGQAPRLLIYDVSNRATGIPARFSGSGSGTDFTLTISSLEPEDFAVYYCQHRYSWPLTFGGGTKVEIKGGGGSGGGGSGGGGSQVQLVQSGGGLVKPGGSLRLSCAASGFTFSDYYMSWIRQAPGKGLEWVSYISSSGSTIYYADSVKGRFTISRDNAKNSLYLQMNSLRAEDTAVYYCARDGYRTHNWFDPWGQGTLVTVSS
notes: as for B1
B5: M18 (scFv)
chain 1: QVQLVQSGGGLVQPGGSLRLSCAASGFTFSSYWMHWVRQAPGKGLVWVSRINSDGSSTSYADSVKGRFTISRDNAKNTLYLQMNSLRAEDTAVYYCVRTGWVGSYYYYMDVWGKGTTVTVSS
chain 2: EIVLTQSPGTLSLSPGERATLSCRASQSVSSNYLAWYQQKPGQPPRLLIYDVSTRATGIPARFSGGGSGTDFTLTISSLEPEDFAVYYCQQRSNWPPWTFGQGTKVEIK
B6: anti-mesothelin scFv-M15 (scFv)
scFv: DIQLTQSPSSLSASIGDRVTITCRASQGVNSALAWYQQKPGKPPNLLIYDASSLESGVPSRFSGSGSGRDFTLTISSLQPEDFATYYCQQFSSYPLTFGGGTKVDIKGGGGSGGGGSGGGGSQVQLVQSGAEVKKPGASVKVSCKASGYTFTSYYMHWVRQAPGQGLEWMGIINPSGGSTSYAQKFQGRVTMTRDTSTSTVYMELSSLRSEDTAVYYCARAQRGGSVYFDYWGQGTLVTVSS
notes: as for B1
B7: anti-mesothelin scFv-M24 (scFv)
scFv: QPVLTQPPSASGTPGQRVTISCSGSSSNIGSNYVYWYQQFPGTAPKLLIYMNNQRPSGVPDRFSGSKSGTSASLAISGLRSEDEADYYCAARDDSLSGYVTFGGGTKLTVLGGGGSGGGGSGGGGSEVHLVESGGGLVQPGGSLRLSCAASGFTFSSYAMSWVRQAPGKGLEWVSAISGSGGSTYYADSVKGRFTISRDNSKNTLYLQMNSLKTEDTAVYYCTRGVATFDYWGQGTLVTVSS
notes: as for B1
B8: anti-mesothelin scFv-M31 (scFv)
scFv: QSALTQPPSASGSPGQSVTISCTGTSSDIGGYNSVSWYQQHPGKAPKLIIYGVSRRPSGVPDRFSGSKSANTASLTVSGLQAVDEADYYCSSYGGSNNLLFGGGTKLTVLGGGGSGGGGSGGGGSEVHLVESGGGLAQPGGSLRLSCAASGFSFSSSWMAWVRQAPGKGLEWVANIKQDGSSQYYVDSVKGRFTISRDNAKNSLSLQMNSLRAEDTAVYYCARDIWYSIDYWGQGTLVTVSS
notes: as for B1
B9: anti-mesothelin scFv-M37 (scFv)
scFv: DIVMTQTPSSLSASVGDRVTITCRASQGISNYLAWFQQKPGKAPKPLIYAASSLQSGVPSKFSGSGSGTDFTLTISNLQPEDFATYICQQYSSYPITFGQGTRLEIKGGGGSGGGGSGGGGSQLQLQESGPGLVKPSETLSLTCAVSGGSISPYYWTWIRQSPGKAMEWMGYIHYSGRTNYNPSLESRATFSVDTSKNQISLKLNSVTAADTAVYYCTKVGDPGLFDYWGPGTLVTVSS
notes: as for B1
B10: anti-mesothelin scFv-M28 (scFv)
scFv: QSALTQPPSASGSPGQSVTISCSGTSSDVGGYNFVSWYQHHPGKAPKLMIYEVSKRPSGVPDRFSGSKSGNTASLTVSGLQAEDEADYYCSSYAGRNNPYLFGTGTKLTVLGGGGSGGGGSGGGGSQLQLQESGAEVKKPGSSVKVSCKASGGTFSSYAISWVRQAPGQGLEWMGGIIPIFGTANYAQKFQGRVTITADESTSTAYMELSSLRSEDTAVYYCARDLGGYSYGHGLDYWGQGTLVTVSS
notes: as for B1
B11: anti-mesothelin scFv-M22 (scFv)
scFv: QSALTQPASVSGSPGQSITLSCTGTRRDIGGYEYVSWYQQHPGKAPKLLIFSVNNRPSGVSHRFSGSKSGNTASLTISGLQAEDEAAYFCSSYSSRDTLVLFGGGTKLTVLGGGGSGGGGSGGGGSQVQLVQSGAEVKKPGSSVKVSCKASGGTFSSYAISWVRQAPGQGLEWMGGIIPIFGTANYAQKFQGRVTITADESTSTAYMELSSLRSEDTAVYYCASGRSGSYGLYWGQGTLVTVSS
notes: as for B1
B12: anti-mesothelin scFv-M27 (scFv)
scFv: EIVLTQSPGTLSLSPGERATLSCRASQPIVASHLAWYQHKPGQAPRLLIYGASTRAAGIPDRFSGSGSGTDFTLTISRLEPEDFAVYFCQQYGISPFTFGPGTKVDIKGGGGSGGGGSGGGGSQVQLVQSGAEVKKPGESLKISCQGSGYSFTDYWIGWVRQAPGQGLEWMGWITPNNGNTNYAPKFQGRVTLTTDTSTSTAYMELRSLTSDDTAVYFCARRGRNSSGYLYYYSMDVWGQGTTVTVSS
notes: as for B1
B13: anti-mesothelin scFv-M32 (scFv)
scFv: DIRMTQSPSSLSASVGDRVTVTCQASEDINNSLNWYQQKPGKAPQLLIYDASDLETGVPSRFSGRGSGRDFTLTISSLQPEDFATYYCQQLNSYPLTFGGGTKLEIKGGGGSGGGGSGGGGSQVQLVQSGAEVKKPGASVKVSCKASGFTFIGYYLHWVRQAPGQGLEWMGIINPSGGRTSMAQKFQGRVSMTTDTSTGTVYLDLGRLGSDDTAVYYCARADNWNAGSMDVWGNGTTVTVSS
notes: as for B1
B14: 4.6 (bispecific antibody)
single chain, scFv-G4S-scFv: QVQLVQSGAEVKKPGSSVKVSCKASGGTFSSYAISWVRQAPGQGLEWMGMINPSGGTTSYAQKFQGRVTMTRDTSTSTVYMELSSLRPEDTAVYYCARGFRMDQWGQGTLVTVSSGGGGSGGGGSGGGGSQSALTQPPSASGSPGQSVTISCTGTSSDVGAYNFVSWYQQHPGNAPKLIIYDVRKRPSGIPDRFSASKSGNTASLTVSGLQADDEADYYCSSYAGNNNLVFGGGTKLTVLGGGGSQVKLQESGPGLVKPSETLSITCTVSGFSLSDYGVHWVRQSPGKGLEWLGVIWAGGGTNYNSALMSRKTISKDNSKSQVFLKMSSLTAADTAVYYCARDKGYSYYYSMDYWGQGTTVTVSSGGGGSGGGGSGGGGSDIQLTQSPSSLSVSVGDRVTISCRASESVEYYVTSLMQWYQQKPGQAPKLLIFAASNVESGVPSRFSGSGSGTNFTLTISSVQEEDFAMYFCQQSRKVPYTFGGGTKLEIK
notes: Expressed from mRNA in T cells; A signal peptide is not described; also called parent diabody 4.6
B15: 5.36 (bispecific antibody)
single chain, scFv-G4S-scFv: B14 single chain, scFv-G4S-scFv with E10Q, S188I
B16: 5.17 (bispecific antibody)
single chain, scFv-G4S-scFv: B14 single chain, scFv-G4S-scFv with N228E, L229M
notes: how the two are joined there is not described; also called diabody part of M12-5.17 and 5.17-M12
B17: 5.12 (bispecific antibody)
single chain, scFv-G4S-scFv: B14 single chain, scFv-G4S-scFv with I34V, S188R
B18: 5.25 (bispecific antibody)
single chain, scFv-G4S-scFv: B14 single chain, scFv-G4S-scFv with N228R
B19: 5.28 (bispecific antibody)
single chain, scFv-G4S-scFv: B14 single chain, scFv-G4S-scFv with V183T

Each binder was assayed against T1, mesothelin-Fc recombinant protein (human, UniProt Q13421 296-580, limits assumed) (assay: flow cytometry, T cells with CAR mRNA, mesothelin-Fc + PE-anti-IgG-Fc; Control 0.63).
T1 construct: construct not described; also called Meso-Fc; not shown: Fc part
T1 sequence (Q13421 other isoform, or with tags, fused parts or gaps limits assumed): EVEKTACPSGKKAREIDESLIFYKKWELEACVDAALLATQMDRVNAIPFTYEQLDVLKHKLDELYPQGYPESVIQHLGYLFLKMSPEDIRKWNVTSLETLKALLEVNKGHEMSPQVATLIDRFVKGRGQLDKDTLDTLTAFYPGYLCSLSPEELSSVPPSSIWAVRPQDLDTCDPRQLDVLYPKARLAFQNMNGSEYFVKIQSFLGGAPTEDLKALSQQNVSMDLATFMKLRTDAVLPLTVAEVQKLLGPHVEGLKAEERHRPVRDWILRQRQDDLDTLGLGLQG
Experimental: (§1) Mesothelin CAR mRNA obtained in Example 26 above was introduced into A549 tumor cells and T cells by electroporation, and the procedures are as follows: A549 tumor cells and T cells were collected and washed 3 times with the Opti-MEM medium. The cell pellet was resuspended in the Opti-MEM medium and the cell concentration was adjusted to 1×10e7 cells/mL. 10 μg of RNA was aliquoted into 1.5-mL EP tubes, 100 μL of T cells or A549 cells were added, followed by mixing well. 100 μL of cells mixed with RNA were added to the BTX electroporation cuvette and slight tapping was performed to avoid air bubbles. Electroporation was performed using a BTX instrument under the following parameters: for T cells: 500 V voltage, 0.7 ms; for A549 tumor cells: 300 V voltage, 0.5 ms. The cells were then transferred to a pre-warmed medium and cultured at 37° C. The binding of mesothelin CART cells to the mesothelin-Fc recombinant protein was determined by FACS staining. […] T cells without CAR molecules served as the control (“Mock”).

percent of cells in the gate [%] | Binder
36.3 | B1
80.8 | B2
71.1 | B3
83.4 | B4
9.53 | B5
48.8 | B6

Each binder was assayed against T1, mesothelin-Fc recombinant protein (assay: flow cytometry, T cells with CAR mRNA, mesothelin-Fc + PE-anti-IgG-Fc; Control 0.97).
Experimental: as §1

percent of cells in the gate [%] | Binder
93.6 | B7
67.9 | B8
74.2 | B9
82.8 | B10
80 | B11
76.3 | B12
84.1 | B13

The binders below were run against T2, Meso-biotin (assay: flow cytometry, T cells with diabody mRNA only, Meso-biotin + PE-Streptavidin; E1 0.29).
T2 construct: Meso-Fc and PE-anti-Fc for this staining

percent of cells in the gate [%] | Binder
0.72 | B14
1.14 | B15
1.12 | B16
1.11 | B17
2.36 | B18
0.94 | B19

What follows are binders tested against T3, CD40-Fc ( for this staining reagent …, UniProt P25942) (assay: flow cytometry, T cells with 10 µg diabody mRNA only, CD40-Fc + PE-anti-Fc; E1 (no mRNA) 0.48).
T3 construct: soluble Fc fusion; Staining reagent, detected with PE-anti-Fc

percent of cells in the gate [%] | Binder
81.6 | B14
88 | B15
82.1 | B16
93.6 | B17
92.7 | B18
85.8 | B19

Each binder was assayed against T3, CD40-Fc (assay: flow cytometry, T cells with diabody mRNA and M12 CAR mRNA, CD40-Fc + PE-anti-Fc; E1 0.48, E2 (M12 only) 0.77).

percent of cells in the gate [%] | Binder
83.9 | B14
94.2 | B15
88.1 | B16
87.9 | B17
92.9 | B18
87.4 | B19
